Legend:
[1] = biological target: T1, human IL-23R expressed on the cell surface of stably transfected iLite and HEK cell lines (human, UniProt Q5VWK5 24-629); test: flow cytometry on human IL-23R HEK cells, Expt D (8-point, 96well)
T1 construct: whole, on cells; Same receptor on two transfected cell lines; the cell line is named under assay; also called human IL-23R iLite cells; human IL-23R HEK cells
T1 sequence (looked up): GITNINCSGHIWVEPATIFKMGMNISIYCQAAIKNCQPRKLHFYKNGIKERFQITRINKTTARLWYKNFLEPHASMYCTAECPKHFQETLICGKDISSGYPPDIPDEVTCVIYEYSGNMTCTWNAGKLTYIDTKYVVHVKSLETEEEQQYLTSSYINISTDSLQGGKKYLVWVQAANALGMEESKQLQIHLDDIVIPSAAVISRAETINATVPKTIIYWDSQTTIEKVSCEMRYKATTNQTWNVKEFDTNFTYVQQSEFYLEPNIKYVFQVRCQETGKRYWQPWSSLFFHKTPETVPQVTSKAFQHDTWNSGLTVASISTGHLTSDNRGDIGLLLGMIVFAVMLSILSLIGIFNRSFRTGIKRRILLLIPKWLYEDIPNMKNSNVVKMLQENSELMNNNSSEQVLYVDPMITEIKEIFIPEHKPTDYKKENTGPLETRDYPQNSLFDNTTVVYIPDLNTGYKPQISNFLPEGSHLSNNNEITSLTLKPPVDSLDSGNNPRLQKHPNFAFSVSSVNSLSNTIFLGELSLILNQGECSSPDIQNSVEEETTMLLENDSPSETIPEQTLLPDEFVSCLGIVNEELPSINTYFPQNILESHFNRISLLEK
Method: HEK-IL-23R cell concentration response mAb binding (8-point, 96-well assay). […] HEK-IL-23R and HEK-parental cells (12.5 μL of each, 120000 cells total) were plated in 2× replicate on 96-well V-bottom plates (Corning, Cat #3357) into 37° C. warmed Assay medium containing serially diluted IL-23R mAbs to a final volume of 150 μL. IL-23R mAbs were allowed to bind to cells for 30 minutes, at 37° C. […] Cells were next washed twice in ice-cold stain buffer, then resuspended in a final volume of 30 μL with Sytox Green viability dye (ThermoFisher, Cat #S7020). Plates were kept on ice until run for analysis on the iQue. All washes were performed by centrifugation (800 rcf, 3 minutes) followed by flick decantation to remove supernatants. Cell-binding to HEK-IL-23R cells was measured with FlowJo, by gating for single, viable cells and determining the geometric mean fluorescence intensity (MFI) for the 647 detection antibody. Geometric mean fluorescence intensities were plotted over log mAb concentrations fitted with a dose response curve with variable slope using GraphPad Prism.

[2] = biological target: T1, human IL-23R expressed on the cell …; test: flow cytometry on human IL-23R HEK cells, Expt E (11-point, 384well)
Method: HEK-IL-23R cell concentration response mAb binding (11-point, 384-well assay). […] IL-23R mAbs were allowed to bind to cells for 30 minutes, at 37° C. […] Cells were next washed twice in ice-cold stain buffer, then resuspended in a final volume of 10 μL with Sytox Green viability dye (ThermoFisher, Cat #S7020). Plates were kept on ice until run for analysis on the iQue. All washes were performed by centrifugation (800 rcf, 3 minutes) followed by automated aspiration to remove supernatants with plate washers. Cell-binding to HEK-IL-23R cells was measured with FlowJo, by gating for single, viable cells and determining the geometric mean fluorescence intensity (MFI) for the 647 detection antibody. Geometric mean fluorescence intensities were plotted over log mAb concentrations fitted with a dose response curve with variable slope using GraphPad Prism.

B1: I23RB31 (antibody, mouse IgG2a, kappa, V domains shown)
VH: EFQLQQSGAEMVRPGASVKLSCKASGYTFTGYWMNWVKQRPGQGLEWIGKIDPSDTETHYNQNFKDKATLTVDKSSSTAYMQLNSLTSEDSAVYYCARWGLGRNFAMDYWGQGTTLTVSS
VL: DIVLTQSPATLSVTPGDRVSLSCRASQSISDHLHWYQQKSHESPRLLIKFASQSISGIPSRFSGSGSGSDFTLSIDSVEPEDVGVYYCQNGHSFPLTFGSGTKLEIKR
notes: immunization; mouse IgG2a/kappa
EC50 [1]: 1.7 nM | EC50 [2]: > 50 nM | MFI (6.4 nM) [2]: 78600 MFI

B2: I23RB60 (antibody, mouse IgG2a, kappa, V domains shown)
VH: DVQLQESGPELVKPGDSVKMSCEASGYTFTDYYIDWVKQSHGKSLEWIGYIYPNNGGISFNQKFEGKATLTVDKSSSTAYMELHSLTSEDSAVYYCAREKLRGRDYWGQGTTLTVSS
VL: DIVMTQSTSSLSASLGDRVTISCRASQDIRNNLNWYQQKPDGTVKLLIFYSSRLHSGVPSRFSGSGSGTDYSLTISNLEQEDIATYFCQQGHTLPWTFGAGTKLELKR
notes: as for B1
EC50 [1]: 0.6 nM | EC50 [2]: 27.7 nM | MFI (6.4 nM) [2]: 93700 MFI

B3: I23RB188 (antibody, mouse IgG2a, kappa, V domains shown)
VH: QIQLVQSGPELKKPGETVKISCKASGYTFTNYGMNWVKQAPGKGLKWMGWINTYTGAPTYADDFKGRFAFSLETSASTAYLQINNFKNEDTATYFCARGNGYPYYYGINYWGQGTSVTVSS
VL: DVQMIQSPSSLSASLGERVSLTCRASQEISGNLSWLQQKPDGTIKRLIYAASTLDSGVPKRFSGSRSGSDYSLTISSLESEDFADYYCLQYASYPWTFGAGTRLEIKR
notes: as for B1
EC50 [1]: 2 nM | EC50 [2]: > 50 nM | MFI (6.4 nM) [2]: 90100 MFI

B4: I23RB27 (antibody, mouse IgG2a, kappa, V domains shown)
VH: QVQLKESGPDLVQPSQTLSLTCTVSGFSLTSYGVHWVRQPPGKGLEWVGTLGWDDKKSYNSALKSRLSISRDTSKSQVFLKLSSLQTEDTAMYYCTKEDVSYAMDFWGQGTTLTVSS
VL: DIQMTQSPTSLAVSLGQRATISCRASESVEYYGTSLMHWYQQKPGQPPKLLIYAASNVESGVPARFSGSGSGTDFSLNIHPVEEEDIAMYFCQQGKKVPWTFGAGTKLEMKR
notes: as for B1
EC50 [1]: 3.5 nM | EC50 [2]: > 50 nM | MFI (6.4 nM) [2]: 153000 MFI

B5: I23RB73 (antibody, mouse IgG2a, kappa, V domains shown)
VH: EVQLQQSGAELVKPGASVKISCKASGYTFTDHAIHWVKQRPEQGLEWIGYISLGNGDIKYSEKFRGKATLTADKTSNTAYMQLNSLTSEDSAVYFCKRSRVLRWTTYWYFDVWGAGTSVTVSS
VL: DIVMTQSHKFMSTSVGDRVSITCKASQDVSTAVAWYQQKPGQSPKLLIYWASTRLTGVPDRFTGSGSGTDYTLTISSVQAEDLALYYCQQYYNTPLTFGAGTKLELKR
notes: as for B1
EC50 [1]: 1.8 nM | EC50 [2]: 11.6 nM | MFI (6.4 nM) [2]: 158000 MFI

B6: I23RB77 (antibody, mouse IgG2a, kappa, V domains shown)
VH: DVQLQESGPGLVAPSQSLSITCTVSGFSLSRYSVHWVRQPPGKGLEWLGMIWGSGSTDYNSALKSRLSINKDNSKSQVFLKMNSLQTDDTAMYYCARVYYGGSPYAMDYWGQGTTVTVSS
VL: DIVMTQSPASLALSLGQRATISCRASESVDSYGNSFMHWYQQKPGQPPKLLIYLASNLESGVPARFSGSGSRTDFTLTIDPVEADDAAIYYCQQNNEEPNTFGAGTKLEMKR
notes: as for B1
EC50 [1]: 0.2 nM | EC50 [2]: 4.8 nM | MFI (6.4 nM) [2]: 184000 MFI

B7: I23RB58 (antibody, mouse IgG2a, kappa, V domains shown)
VH: EVKLVESGGGLVKPGGSLKLSCAASGFSFIIYTMSWVRQTPEKRLEWVAYITSGGGITYYPDSVKGRFTISRDNARNTLYLQMSSLRSEDTAMYYCARHEGDYYDDYYRIGYAMDYWGQGTSVTVSS
VL: DIVMTQTPASLAVSLGQRATISCRASESVDSYGNSFMHWYQQKPGQPPKLLIYRASNLESGIPARFSGSGSRTDFTLTINPVEADDVATYYCQQSNEDPLTFGAGTKLEMKR
notes: as for B1
EC50 [1]: 23.1 nM | EC50 [2]: 11.6 nM | MFI (6.4 nM) [2]: 150000 MFI

B8: I23RB82 (antibody, mouse IgG2a, kappa, V domains shown)
VH: QVQLKESGPGLVAPSQSLSITCTVSGFSLTNYALHWFRQSPGKGLEWLGVIWSDGSTDYNSPFISRLSISKDNSKSQVFFKMNSLQADDTAIYYCARSRSNYGRWYFDVWGAGTTLTVSS
VL: QIVLSQSHKFMSTSVGDRVSITCKASQDVSTAVAWYQQKPGQSPKLLIYSAFYRYTGVPDRFTGSGSGTDFTFTISSVQAEDLAVYYCQQHYSTPYTFGGGTKLEIKR
notes: as for B1
EC50 [1]: 0.6 nM | EC50 [2]: 9.8 nM | MFI (6.4 nM) [2]: 181000 MFI

B9: I23RB81 (antibody, mouse IgG2a, kappa, V domains shown)
VH: DVQLQESGPGLVAPSQSLSITCTVSGFSLTSYAINWVRQPPGKGLEWLGVIWTGGGTNYNSALKSRLSISKDNSKSQLFLKMNSLQTDDTARYYCARNRDYSNYRWYFDVWGAGTSVTVSS
VL: DIVMTQSHKFMSTSVGDRVSIICKASQDVSTAVAWYQQKPGQSPKLLIYSASYRYTGVPDRFTGSGSGTDFTFTISSVQAEDLAVYYCQQHYSTPLTFGAGTRLEIKR
notes: as for B1
EC50 [1]: 0.9 nM | EC50 [2]: 7.2 nM | MFI (6.4 nM) [2]: 181000 MFI

B10: I23RB39 (antibody, mouse IgG2a, kappa, V domains shown)
VH: EVQLQQSGPELVKPGAPVKISCKASGYTFTNYYIHWVKQRPGQGLEWIGYIYPGNGGTAYNQKFKDKATLTADNPSSTAYMQLSSLTSEDSAVYFCARSRGGSRNYFDYWGQGTTLTVSS
VL: DIQMTQSHKFMSTSVGDRVSITCKASQDVSTAVAWYQQKPGQSPKLLIYSAFYRYTGVPDRFTGSGSGTDFTFTISSVQAEDLAVYYCQQHYSSPRTFGAGTKLELKR
notes: as for B1
EC50 [1]: 0.3 nM | EC50 [2]: 3.8 nM | MFI (6.4 nM) [2]: 277000 MFI

B11: I23RB71 (antibody, mouse IgG2a, kappa, V domains shown)
VH: DVQLQESGPDLVKPSQSLSLTCTVTDYSITRGYNWHWIRQFPGNKLEWMGYIHYSGSTNYNPSLKSRISITRDTSKNQFFLQLNSVTTEDTATYYCARQYGLKAMDYWGQGTSVTVSS
VL: DIVMTQSHKFMSTSVGDRVSITCKASQDVITAVAWYQQKPGQSPKLLIYSASYRYTGVPDRFTGSGSGTDFTFTISSVQAEDLAVYFCQQHFGTPYTFGSGTKLEMKR
notes: as for B1
EC50 [1]: ~6.7 nM | EC50 [2]: 3.4 nM | MFI (6.4 nM) [2]: 110000 MFI

B12: I23RB83 (antibody, mouse IgG2a, kappa, V domains shown)
VH: DVQLQESGPGLVAPSQSLSITCTVSGFSLTNYDVHWVRQSPGKGLEWLGVIWSDGSTDYNAAFISRLSFSKDNSKRQVFFKMNSLQPDDTAIYYCARNNYYRYGRNPMDYWGQGTTVTVSS
VL: DIQMTQSPASQSASLGESVTITCLASQTIGSWLAWYQQKPGKSPQLLIYAATSLADGVPSRFSGSGSGTKFSFKISSLQAEDFVSYYCQQLYSSPLTFGGGTKLEIKR
notes: as for B1
EC50 [1]: 0.7 nM | EC50 [2]: 31.5 nM | MFI (6.4 nM) [2]: 121000 MFI

B13: I23RB74 (antibody, mouse IgG2a, kappa, V domains shown)
VH: DVQLQESGPGLVKPSQSLSLTCSVTGYSITSGYYWNWIRQFPGNKLEWMGYISYDGSFNYNPSLKNRLSITRDTSMNQFFLKLNSVTSEDTATYYCARAEIYYDYDGDFDYWGQGTTLTVSS
VL: DIVLTQSPASLAVSLGQRATISCRASKSVSTSGSNFLHWYQQKPGQPPKLLIYFASNLESGVPARFSGSGSGTDFTLNIHPVEEEDAATYYCQHSRELPHTFGAGTKLELKR
notes: as for B1
EC50 [1]: 0.3 nM | EC50 [2]: 13 nM | MFI (6.4 nM) [2]: 185000 MFI

B14: I23RB61 (antibody, mouse IgG2a, kappa, V domains shown)
VH: DVQLQESGAELVKPGASVKLSCKSFDYTFTSFDINWMKQRPGQGLEWIGWIFPGSGTTNYNEKFKGKATLTADKSSSTAYMHLTSLTSEDSAVYFCARRLTGTRYFDVWGTGTTLTVSS
VL: DIQMTQSHKFLSTSVGDRITITCKASQDVITAVAWYQQKSGQSPKLLIYWASTRHTGVPDRFTGSGSGTDYTLTISNVQAEDLALYYCQQHYTTPPTFGAGTKLELKR
notes: as for B1
EC50 [1]: 0.6 nM | EC50 [2]: > 50 nM | MFI (6.4 nM) [2]: 118000 MFI

B15: I23RB36 (antibody, mouse IgG2a, kappa, V domains shown)
VH: QIQLVQSGAELVKPGASVKLSCTTSGFNIKDTYIHWMKQRPEQGLEWIGRIDPANGNTIYASKFQGKATLTTDTSSNTAYMLLSSLTSGDTAVYYCTRGTSWFAYWGQGTTVTVSS
VL: DIVMTQSPKSMSMSVGERVTLSCKASENVGTSVSWFQQKPEQSPKLLIYGASNRYTGVPDRFTGSGSATDFTLTISSVQAEDLADYHCGQSYSYPRTFGGGTKLEIKR
notes: as for B1
EC50 [1]: 0.4 nM | EC50 [2]: 7.3 nM | MFI (6.4 nM) [2]: 171000 MFI

From patent publication US20250179196A1 (Janssen / Centocor, published 2025)
